Laboratory results: doi:10.1101/2023.06.15.545061
pKd: −log10 of the molar value.

Target: biotinylated 10-mer C-terminal PBM peptide of DGKζ (human) (UniProt Q13574)
Sequence (Q13574 whole entry, looked up, tested part not stated): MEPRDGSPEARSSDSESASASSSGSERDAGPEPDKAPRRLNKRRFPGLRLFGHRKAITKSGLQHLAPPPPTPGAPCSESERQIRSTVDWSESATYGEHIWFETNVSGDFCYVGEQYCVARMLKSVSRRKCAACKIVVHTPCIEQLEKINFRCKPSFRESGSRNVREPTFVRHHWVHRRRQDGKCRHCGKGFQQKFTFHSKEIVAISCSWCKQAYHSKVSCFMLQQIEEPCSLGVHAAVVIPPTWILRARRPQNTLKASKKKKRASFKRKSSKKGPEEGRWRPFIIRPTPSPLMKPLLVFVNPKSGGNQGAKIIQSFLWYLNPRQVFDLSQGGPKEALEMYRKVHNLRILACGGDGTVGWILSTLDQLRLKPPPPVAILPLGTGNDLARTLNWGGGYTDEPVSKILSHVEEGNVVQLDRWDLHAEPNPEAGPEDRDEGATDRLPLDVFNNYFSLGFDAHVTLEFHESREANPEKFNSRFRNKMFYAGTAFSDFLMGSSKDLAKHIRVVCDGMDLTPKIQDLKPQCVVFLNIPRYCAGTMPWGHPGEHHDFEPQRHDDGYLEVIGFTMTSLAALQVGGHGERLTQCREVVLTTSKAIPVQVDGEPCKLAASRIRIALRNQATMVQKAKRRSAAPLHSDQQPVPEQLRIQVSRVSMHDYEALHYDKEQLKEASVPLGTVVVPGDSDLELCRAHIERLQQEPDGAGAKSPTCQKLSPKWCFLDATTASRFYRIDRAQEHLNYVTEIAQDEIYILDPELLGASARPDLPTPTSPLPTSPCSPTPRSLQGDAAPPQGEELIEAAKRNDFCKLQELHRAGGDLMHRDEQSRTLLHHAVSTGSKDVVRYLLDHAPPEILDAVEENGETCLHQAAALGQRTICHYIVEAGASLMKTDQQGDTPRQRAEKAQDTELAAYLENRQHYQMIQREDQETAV

pKd: 4.62
Substance: SCRIB
